Substrate in the data set: CCCCCC1CCN=C1C
The data set can be described thus: purified protein. The data set is classed as biochemical, Hahella chejuensis. The note with it: MES pH 6.0 10 mM, 30 °C, air, DMSO, racemic substrate 0.1–1.4 mM, HapB 0.457 μM.

The term Km denotes the concentration of substrate that gives half-maximal velocity. What is called kcat is the maximal rate divided by the concentration of active sites.

B1: HapB (Hahella chejuensis KCTC 2396) (protein)
chain: MESQDNSQYAGEAPVFPSKDFECNQGSFDDTDTSPPQHAGDYDVIVVGGGISGLSSAWKLRERKLLVLDQRDRFGGAARLEQRDGLLYASGASCFQLPTGHNEVSHLLQDLDLWNQWRSTAEDTLVIFDTKRLMKGLGEVTAALLKQPKELLKPAVWGLTANLLYSAMSGKPFISAEKKLGDPMFADLFQYLNRFTPDSGKHPAMPWREGCDWTREEMELFDSVSLHDLLFDPATRRSLPQDLIPRHRFGSLVKDAVETTLRVECLAIKDVSAYVGLHFLVGYLYRPLVTFPGGNGYIADRIRQRLMSTGSCKFKAGSRAYSITQNQEGVKVCFQQEGKNYYANANALIWAGAKHAAVSVVDGLPQQQKAAIAEIEHRDYAIAGVYLKKAALANYFGGYVIEGDIGGRYPNSWCRSGVCLAANWKDPSYAGGLGVLTLLKPISGAADQGKLGKADFRNLQQTAYGEVRDMLVATGHSPDLIEDIKLWRWPHGLVVSKVGQMKHDVFVNASQPVGAVFFANQDSVGMGNMESAIWAGCHAAEQVRRHFRSHSSVVSHIGDYAATQS
notes: full-length, N-terminal His6 tag (pQE80-L, pHDB1), E. coli BL21, Ni-NTA; soluble, lacks the N-terminal transmembrane domain of PigB
Take B1: the Km came to 220 ± 80 µM and the kcat came out at 0.228 ± 0.02 s⁻¹.

These data come from publication PMC7065143, “Substrate Flexibility of the Flavin‐Dependent Dihydropyrrole Oxidases PigB and HapB Involved in Antibiotic Prodigiosin Biosynthesis” (Chembiochem, 2019).
